{"source": "patent US20130029377", "molecular_target": "Apolipoprotein A-1 Milano (ApoA-1M)", "sequence (chain, as listed by the source)": "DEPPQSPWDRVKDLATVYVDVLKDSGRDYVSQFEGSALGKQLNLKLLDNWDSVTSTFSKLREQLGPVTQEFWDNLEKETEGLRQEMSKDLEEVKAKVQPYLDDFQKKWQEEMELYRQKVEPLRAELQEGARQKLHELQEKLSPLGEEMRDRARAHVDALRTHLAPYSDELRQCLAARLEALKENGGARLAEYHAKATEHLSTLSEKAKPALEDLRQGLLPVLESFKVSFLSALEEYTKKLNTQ"}
{"protein": "outer membrane protease 3B (Protease 7 precursor, or OmpT) (protein) STETLSFTPDNINADISLGTLSGKTKERVYLAEEGGRKVSQLDWKFNNAAIIKGAINWDLMPQISIGAAGWTTLGSRGGNMVDQDWMDSSNPGTWTDESRHPDTQLNYANEFDLNIKGWLLNEPNYRLGLMAGYQESRYSFTARGGSYIYSSEEGFRDDIGSFPNGERAIGYKQRFKMPYIGLTGSYRYEDFELGGTFKYSGWVESSDNDEHYDPGKRITYRSKVKDQNYYSVAVNAGYYVTPNAKVYVEGAWNRVTNKKGNTSLYDHNNNTSDYSKNGAGIENYNFITTAGLKYTF", "values": [{"measurement": "ApoA-1M K238/K239 truncated species (% total ApoA-1M), Capture pool, ompT+ strain ΔdppAΔoppAΔmalE (% total ApoA-1M)", "value": 1.9}, {"measurement": "ApoA-1M K238/K239 truncated species (% total ApoA-1M), DEAE pool, ompT+ strain ΔdppAΔoppAΔmalE (% total ApoA-1M)", "value": 1.3}, {"measurement": "ApoA-1M K238/K239 truncated species (% total ApoA-1M), DEAE post-peak pool, ompT+ strain ΔdppAΔoppAΔmalE (% total ApoA-1M)", "value": 7}, {"measurement": "ApoA-1M K238/K239 truncated species (% total ApoA-1M), selected DEAE post-peak fraction, ompT+ strain ΔdppAΔoppAΔmalE (% total ApoA-1M)", "value": 14.2}, {"measurement": "K238/K239 truncation of ApoA-1M, ompT+ strain against ΔompT strain", "value": "marked (~5- to 20-fold) reduction in the amount of truncated ApoA-1M in the GB004 strain compared with the 3K0 strain"}]}
